Data: paper doi:10.1101/2022.06.15.495552, “A network of DZF proteins controls alternative splicing regulation and fidelity”

B1: U-rich (AU-rich) 12-mer dsRNA, Zfr-RBNS3 (dsRNA)
RNA 1: AAUGUUGUAAAA
RNA 2: UUUUACAACAUU
B2: C-rich 24-mer RNA : G-rich DNA hybrid, Zfr-RBNS1 (DNA:RNA)
RNA: AAUGACACCCAAAAUGACACCCAA
DNA: TTGGGTGTCATGGGTGTCAT
B3: U-rich 24-mer RNA : A-rich DNA hybrid, Zfr-RBNS3 (DNA:RNA)
RNA: AAUGUUGUAAAAAAUGUUGUAAAA
DNA: TTTTACAACATTTTTACAACATT
B4: U-rich (AU-rich) 24-mer dsRNA, Zfr-RBNS3 (dsRNA)
RNA 1: AAUGUUGUAAAAAAUGUUGUAAAA
RNA 2: UUUUACAACAUUUUUUACAACAUU
B5: C-rich (GC-rich) 24-mer dsRNA, Zfr-RBNS1 (dsRNA)
RNA 1: AAUGACACCCAAAAUGACACCCAA
RNA 2: UUGGGUGUCAUUUUGGGUGUCAUU
B6: C-rich (GC-rich) 12-mer dsRNA, Zfr-RBNS1 (dsRNA)
RNA 1: AAUGACACCCAA
RNA 2: UUGGGUGUCAUU

Columns and labels:
ZFRlong;ILF2 (29-390) [1] = molecular target: T1, ZFRlong;ILF2 (29-390) (human;human?, UniProt Q96KR1;Q12905 317-1074;29-390, |); test: EMSA; 4 mM Mg2+; EMSA: 20 mM HEPES pH 7.5, 150 mM K acetate, 4 mM Mg acetate, 1 mM DTT, 0.5 uM nucleic acid, 1 h on ice; 8% native PAGE in 0.5x TBE at 4 C; details: protein: recombinant;recombinant, tags: N-terminal His6;N-terminal His6, copies: 1;1, blunt
ZFRlong;ILF2 (29-390) [2] = molecular target: T1, ZFRlong;ILF2 (29-390); test: EMSA; 4 mM Mg2+; affinity similar to 24-mer dsRNA; EMSA: 20 mM HEPES pH 7.5, 150 mM K acetate, 4 mM Mg acetate, 1 mM DTT, 0.5 uM nucleic acid, 1 h on ice; 8% native PAGE in 0.5x TBE at 4 C; details: protein: recombinant;recombinant, tags: N-terminal His6;N-terminal His6, copies: 1;1, label: Cy5 on RNA strand (5' per Methods), RNA:DNA duplex
[3] = label: DY681 on strand 1 (5' per Methods)
[4] = label: Cy5 on strand 1 (5' per Methods)

T1 sequence (Q96KR1 317-1074, chain 1 of 2): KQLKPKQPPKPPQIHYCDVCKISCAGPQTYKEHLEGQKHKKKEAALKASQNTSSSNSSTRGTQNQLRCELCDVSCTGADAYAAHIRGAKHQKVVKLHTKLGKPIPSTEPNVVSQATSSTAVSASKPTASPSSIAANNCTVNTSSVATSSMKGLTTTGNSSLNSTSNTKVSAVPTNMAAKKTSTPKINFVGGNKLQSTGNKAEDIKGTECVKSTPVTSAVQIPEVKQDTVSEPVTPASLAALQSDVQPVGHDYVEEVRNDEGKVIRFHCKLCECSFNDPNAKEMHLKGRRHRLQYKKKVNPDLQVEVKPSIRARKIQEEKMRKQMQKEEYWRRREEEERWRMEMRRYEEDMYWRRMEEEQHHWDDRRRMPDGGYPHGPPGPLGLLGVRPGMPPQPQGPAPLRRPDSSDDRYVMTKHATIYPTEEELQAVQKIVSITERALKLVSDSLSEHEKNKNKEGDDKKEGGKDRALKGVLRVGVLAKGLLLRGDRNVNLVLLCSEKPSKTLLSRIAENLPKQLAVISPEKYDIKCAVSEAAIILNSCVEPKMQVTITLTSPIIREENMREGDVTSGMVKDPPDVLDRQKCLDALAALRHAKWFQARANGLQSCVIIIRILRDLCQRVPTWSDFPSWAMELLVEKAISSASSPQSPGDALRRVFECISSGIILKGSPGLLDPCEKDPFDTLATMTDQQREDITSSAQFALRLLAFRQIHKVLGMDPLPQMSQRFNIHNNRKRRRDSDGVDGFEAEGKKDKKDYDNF
T1 sequence (Q12905 29-390, chain 2 of 2): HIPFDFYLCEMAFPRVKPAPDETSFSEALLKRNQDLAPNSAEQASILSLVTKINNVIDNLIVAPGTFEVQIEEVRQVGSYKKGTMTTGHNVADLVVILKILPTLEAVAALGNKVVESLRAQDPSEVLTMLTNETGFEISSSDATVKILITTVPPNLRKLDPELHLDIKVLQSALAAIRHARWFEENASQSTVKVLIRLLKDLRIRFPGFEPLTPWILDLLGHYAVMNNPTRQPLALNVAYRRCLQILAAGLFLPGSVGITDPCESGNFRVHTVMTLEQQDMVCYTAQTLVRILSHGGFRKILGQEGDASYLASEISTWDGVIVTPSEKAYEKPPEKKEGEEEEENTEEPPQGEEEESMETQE

Binder	Kd (ZFRlong;ILF2 (29-390) [1]; [3])	Kd (ZFRlong;ILF2 (29-390) [1]; [4])	further results
B1	~800 nM	–	–
B2	–	–	binding result (ZFRlong;ILF2 (29-390) [2]; printed DNA 4 nt short): binds
B3	–	–	binding result (ZFRlong;ILF2 (29-390) [2]; printed DNA 1 nt short): binds
B4	–	~300 nM	–
B5	–	~300 nM	–
B6	~800 nM	–	–
